Biological target: human immunoglobulin G drug separated from human plasma (Gammagard, Baxter) (human)

Ka [M⁻¹] | Substance
3e+08 | C-G29A/D36R.5d (designed binder)
6.5e+07 | C-G29A/K35R/D37E.5d (designed binder)

Reference: patent publication US20130096276A1
